Source: paper PMC5829826
Residue numbers refer to the chain shown, from its start.

Tests used:
Assay in all cases: EMSA
Details in all cases: 60 mM HEPES-KOH pH 7.5, 25 mM MgCl2, 5 mM EDTA, 300 mM KCl, 50 µg/ml BSA, 3 mM DTT, 24 ng labeled DNA, 20 min, room temperature
[1] = target: T1, Cra Y47F Y47F (Escherichia coli EHEC TUV93-0) (UniProt P0ACP1)
T1 sequence: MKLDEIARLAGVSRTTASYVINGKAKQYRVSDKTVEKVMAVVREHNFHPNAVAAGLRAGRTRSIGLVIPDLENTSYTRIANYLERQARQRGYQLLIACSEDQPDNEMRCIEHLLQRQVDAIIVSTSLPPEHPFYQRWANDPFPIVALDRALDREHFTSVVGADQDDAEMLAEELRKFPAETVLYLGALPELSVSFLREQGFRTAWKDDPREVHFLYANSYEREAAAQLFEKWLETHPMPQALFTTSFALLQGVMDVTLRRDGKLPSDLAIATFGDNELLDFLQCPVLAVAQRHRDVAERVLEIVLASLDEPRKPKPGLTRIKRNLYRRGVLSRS

[2] = target: T2, Cra WT (Escherichia coli EHEC TUV93-0) (UniProt P0ACP1)
T2 sequence: T1 sequence with F47Y

[3] = target: T3, Cra Y47E Y47E (Escherichia coli EHEC TUV93-0) (UniProt P0ACP1)
T3 sequence: T1 sequence with F47E

[4] = system: LacI Y47E Y47E, ORF:a00089fe
[5] = system: LacI Y47F Y47F, ORF:a00089fe
LacI WT, ORF:a00089fe = system: LacI WT, ORF:a00089fe
[6] = target: T4, PurR WT (Escherichia coli (TUV93-0?)) (UniProt P0ACP7)
T4 sequence: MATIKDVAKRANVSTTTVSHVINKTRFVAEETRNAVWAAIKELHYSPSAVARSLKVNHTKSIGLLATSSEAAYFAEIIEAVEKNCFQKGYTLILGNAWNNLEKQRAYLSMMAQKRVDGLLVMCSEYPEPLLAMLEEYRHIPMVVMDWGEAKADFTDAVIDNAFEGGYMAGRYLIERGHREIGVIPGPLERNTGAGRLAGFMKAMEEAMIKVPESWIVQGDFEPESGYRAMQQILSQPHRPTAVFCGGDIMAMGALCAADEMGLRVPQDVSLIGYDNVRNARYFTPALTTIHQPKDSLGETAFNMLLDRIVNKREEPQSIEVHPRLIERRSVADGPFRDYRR

[7] = target: T5, PurR Y45F Y45F (Escherichia coli (TUV93-0?)) (UniProt P0ACP7)
T5 sequence: T4 sequence with Y45F

[8] = target: T6, PurR Y45E Y45E (Escherichia coli (TUV93-0?)) (UniProt P0ACP7)
T6 sequence: T4 sequence with Y45E

[9] = system: Cra Y47F (Escherichia coli EHEC TUV93-0)
[10] = system: Cra WT (Escherichia coli EHEC TUV93-0)

With “CACCTCCTAACTACTTAAAATTGCTATCATTCGTTATTGTTATCTAGTTGTGCAAAACATGCTAATGTAGCCACCAAATCATACTACAATTTATTAACTGTTATCTATAATGGCGAAAAGCGATGCTGAAAGGTGTCAGCTTTGCAAAAATTTGATTTGGATCACGTAATCAGTACCCAGAAGTGAGTAATCTTGCTTACGCCACTTGGAAGTGACGCATTAGAGATAATAACTCTAATGTTTAAACTCTTTTAGTAAATCACAGTGAGTGTGTGCGC (double strand) [adhE regulatory fragment]” the binding [1] was “binds”, the binding [2] was “binds” and the binding [3] was “no binding”.
With “CATGTGCTGCGACTGCGTTCGCTTACCCCAATCACTTACTTATGTAAGCTCCTGGGGATTCACTCGCTTGCCGCCTTCCTGTAACTCGAATTAAGTAGAGTATAGTGAAACGGTTCAGCTTGGTTTTTATTCTGTTTTATTTGTTTATGCAATGAGATCTATCTTATAAAGAGAAACGCTTAACTAAATGGAAATGC (double strand) [LEE1 (ler) regulatory fragment]” the Kd [1] was 130 nM, the binding [1] was “binds” and the Kd [2] was 111 nM. For the same substance, the binding [2] was “binds” and the binding [3] was “no binding”.
In the case of “CGACGGCCAGTGAATCTGTAATCATAGTCATAGCTGTATCCTGTGTGAAATTGTTATCCGCTCACAATTTCACACAACATACGAGCCGGACGCATAGAGTGTAAAGCGTGGGGTGCCTAATGAGTGAGCTGACTCACATTAATTGCGTTGCGCTCACTGCCCGCTTTCCAGTCGGGAAACTTGTCGTGCCAGCTGCATTAATGAATCG (double strand) [lacO1O3 fragment]”, the binding [4] is reported as “no binding”, the binding [5] is reported as “binds” and the binding (LacI WT, ORF:a00089fe) is reported as “binds”.
In the case of “CGTAATCAATCCAGACCATATGTGTCCCACGATTTTACGCCCTGTCATCCTGTTCGGGGGCGCATTCTAACAGAAAAAGAAAACGTTTGCGTAGGGATTTCCTTCCCGCGCATCAATAAAAATGGCGCTGAAAAAATATTCAACGCCATCGACTTTTTATGCCTTTGCGGCATCGGACAATGCGTGTCGGATGCGGCGTAAACGTCTTATCCGACCTACGGTTCTACC (double strand) [purF-cvpA regulatory fragment]”, the binding [6] is reported as “binds”, the binding [7] is reported as “binds” and the binding [8] is reported as “no binding”.
Work on LEE1 (ler) regulatory fragment yielded a Kd [9] of 130 nM, a binding signal (% reduction of binding vs no metabolite) [9] of 33 and a Kd [10] of 111 nM. It also gave a binding signal (% reduction of binding vs no metabolite) [10] of 33.
With “TTTACGGCTTTCCTTGCGTGCTGAAACAGAAGTATTATGCTTTCTTGAAACGTTTCAGCGCGATCTTGTCTTTAACCCTAAGCCAGGTTGGCGCTTTTTTTCTCATAGAAGCTGAATCGTTTCAATTCAGCAAGAGAGGAGAACTATGTTCCAGTTATCCGTACAGGACATCCATCCGGGCGAAAAGGCCGGAGACAAAGAAGAGGCGATTCGCCAGGTCGCTGCGGCGCTGGTGCAGGCCGGTAATGTAGCAGAAGGCTACGTCAATGGCATGCTG (double strand) [fruB regulatory fragment]” the binding [1] was “binds”, the binding [2] was “binds” and the binding [3] was “no binding”.
